The results in this text go back to patent publication US20230083670A1 (published 2023).

In the assay the target is PD-L1 on CHO cells expressing human PD-L1 (CHO-PDL1) (human, UniProt Q9NZQ7 19-290). The assay is described as follows: flow cytometry cell binding; CHO-PD-L1 cells. Background: A flow cytometer gives signals particle by particle.
Chain of PD-L1 on CHO cells expressing human PD-L1 (CHO-PDL1) (Q9NZQ7 19-290): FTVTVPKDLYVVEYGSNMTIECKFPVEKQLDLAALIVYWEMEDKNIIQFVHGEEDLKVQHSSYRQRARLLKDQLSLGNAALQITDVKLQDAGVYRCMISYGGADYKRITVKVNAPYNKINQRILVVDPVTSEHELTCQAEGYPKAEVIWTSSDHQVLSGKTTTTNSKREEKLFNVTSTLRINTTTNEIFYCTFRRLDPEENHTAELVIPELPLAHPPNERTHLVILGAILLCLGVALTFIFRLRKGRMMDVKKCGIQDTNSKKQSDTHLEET

B1: IMM2515 (antibody, V domains shown)
VH: QVQLVQSGAEVKKPGASVKVSCKASGYTFTSNWMHWVRQAPGQGLEWMGMIHPNSGSSNYNEKFKSRVTMTRDTSTSTVYMELSSLRSEDTAVYYCARSYYGSSPYYFDYWGQGTLVTVSS
VL: DIQMTQSPSSLSASVGDRVTITCRASQDIINYLNWYQQKPGKAPKLLIYYTSRLHSGVPSRFSGSGSGTDFTFTISSLQPEDIATYYCQQGDTLPWTFGQGTKVEIKR
In the case of B1, the 50% effective concentration (EC50) – broadly, the concentration that produces a half-maximal response – turned out to be 0.0511 nM.
